Data from patent US20170137467A1 (CHROMOTEK, published 2017).
Values belong to the binder of their own block, whether it stands above or below them. Square brackets hold non-standard residues; d marks the D form. GABA = NCCCC(=O)O

Tests used:
Assay in all cases: positional peptide library pulldown on immobilised Nb, LC-MS of supernatant; signal ratio to control GFP-Nb (1 = not captured, near 0 = captured)
BC2T K4C(Abu) = biological target: T1, BC2T K4C(Abu) (not fully specified (residue 4))
T1 construct: positional scanning library member
T1 peptide: Ac-PDRCAAVSHWQQ-NH2
How it was run: (§1)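 Unbound peptide left in supernatant after 1 h pulldown in PBS/0.01% CHAPS measured by reversed-phase LC-MS (8–30% eluent B gradient, 20 min).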

BC2T V7K = biological target: T2, BC2T V7K
T2 construct: positional scanning library member
T2 peptide: Ac-PDRKAAKSHWQQ-NH2
How it was run: as §1

BC2T A6Y = biological target: T3, BC2T A6Y
T3 construct: positional scanning library member
T3 peptide: Ac-PDRKAYVSHWQQ-NH2
How it was run: as §1

BC2T D2Y = biological target: T4, BC2T D2Y
T4 construct: positional scanning library member
T4 peptide: Ac-PYRKAAVSHWQQ-NH2
How it was run: as §1

BC2T P1Y = biological target: T5, BC2T P1Y
T5 construct: positional scanning library member
T5 peptide: Ac-YDRKAAVSHWQQ-NH2
How it was run: as §1

BC2T R3W = biological target: T6, BC2T R3W
T6 construct: positional scanning library member
T6 peptide: Ac-PDWKAAVSHWQQ-NH2
How it was run: as §1

BC2T D2H = biological target: T7, BC2T D2H
T7 construct: positional scanning library member
T7 peptide: Ac-PHRKAAVSHWQQ-NH2
How it was run: as §1

BC2T D2R = biological target: T8, BC2T D2R
T8 construct: positional scanning library member
T8 peptide: Ac-PRRKAAVSHWQQ-NH2
How it was run: as §1

BC2T A5E = biological target: T9, BC2T A5E
T9 construct: positional scanning library member
T9 peptide: Ac-PDRKEAVSHWQQ-NH2
How it was run: as §1

BC2T A5Y = biological target: T10, BC2T A5Y
T10 construct: positional scanning library member
T10 peptide: Ac-PDRKYAVSHWQQ-NH2
How it was run: as §1

BC2T K4T = biological target: T11, BC2T K4T
T11 construct: positional scanning library member
T11 peptide: Ac-PDRTAAVSHWQQ-NH2
How it was run: as §1

BC2T R3C(Abu) = biological target: T12, BC2T R3C(Abu) (SMILES …)
T12 construct: positional scanning library member
T12 peptide: Ac-PD[GABA]KAAVSHWQQ-NH2
How it was run: as §1

BC2T A5S = biological target: T13, BC2T A5S
T13 construct: positional scanning library member
T13 peptide: Ac-PDRKSAVSHWQQ-NH2
How it was run: as §1

BC2T A6C(Abu) = biological target: T14, BC2T A6C(Abu) (SMILES …)
T14 construct: positional scanning library member
T14 peptide: Ac-PDRKA[GABA]VSHWQQ-NH2
How it was run: as §1

BC2T P1H = biological target: T15, BC2T P1H
T15 construct: positional scanning library member
T15 peptide: Ac-HDRKAAVSHWQQ-NH2
How it was run: as §1

BC2T K4N = biological target: T16, BC2T K4N
T16 construct: positional scanning library member
T16 peptide: Ac-PDRNAAVSHWQQ-NH2
How it was run: as §1

BC2T R3D = biological target: T17, BC2T R3D
T17 construct: positional scanning library member
T17 peptide: Ac-PDDKAAVSHWQQ-NH2
How it was run: as §1

BC2T W10E = biological target: T18, BC2T W10E
T18 construct: positional scanning library member
T18 peptide: Ac-PDRKAAVSHEQQ-NH2
How it was run: as §1

BC2T Q11E = biological target: T19, BC2T Q11E
T19 construct: positional scanning library member
T19 peptide: Ac-PDRKAAVSHWEQ-NH2
How it was run: as §1

BC2T W10D = biological target: T20, BC2T W10D
T20 construct: positional scanning library member
T20 peptide: Ac-PDRKAAVSHDQQ-NH2
How it was run: as §1

BC2T H9D = biological target: T21, BC2T H9D
T21 construct: positional scanning library member
T21 peptide: Ac-PDRKAAVSDWQQ-NH2
How it was run: as §1

ratio (BC2T K4C(Abu)): 0.2 | ratio (BC2T V7K): 0.1 | ratio (BC2T A6Y): 1 | ratio (BC2T D2Y): 0.1 | ratio (BC2T P1Y): 0.2 | ratio (BC2T R3W): 1.1 | ratio (BC2T D2H): 0.1 | ratio (BC2T D2R): 0.1 | ratio (BC2T A5E): 0.8 | ratio (BC2T A5Y): 0.1 | ratio (BC2T K4T): 0.5 | ratio (BC2T R3C(Abu)): 0.9 | ratio (BC2T A5S): 0.2 | ratio (BC2T A6C(Abu)): 0.1 | ratio (BC2T P1H): 0.4 | ratio (BC2T K4N): 0.8 | ratio (BC2T R3D): 1
B1: BC2-NbR106E (VHH)
VHH: QVQLVESGGGLVQPGGSLTLSCTASGFTLDHYDIGWFRQAPGKEREGVSCINNSDDDTYYADSVKGRFTIFMDNAKDTVYLQMNSLKPEDTAIYYCAEARGCKRGEYEYDFWGQGTQVTVSS
notes: headlock mutant of BC2-Nb; immobilised on beads in this assay

B2: BC2 nanobody (VHH)
VHH: QVQLVESGGGLVQPGGSLTLSCTASGFTLDHYDIGWFRQAPGKEREGVSCINNSDDDTYYADSVKGRFTIFMDNAKDTVYLQMNSLKPEDTAIYYCAEARGCKRGRYEYDFWGQGTQVTVSS
notes: immobilised on beads in this assay; also called BC2-Nb; BC2 nanotrap (immobilised)
ratio (BC2T W10E): 1.1 | ratio (BC2T Q11E): 0.1 | ratio (BC2T W10D): 1 | ratio (BC2T H9D): 0.1
